Test: soluble on expression in E. coli; label from the status in PepcDB or PDB records

Sequence	soluble on expression in E. coli
MNYILKQMLGGRQVIATHTCIGMDTDAFQNGRNLVTDTLEIYTGDLRKTLDTLSSIFHPSSFPLKSLRILDNADFKHPIIQGSLLLVVPNTENMHLISNKRVHARYFYYKDDVDFIINKWLDDGKEAGTHFSIGMFLTEDHVKEKYEEFLSTFEERVSWRTNYPPCFAINIDNFSEIVIGYEEFQQISTPEWRLNFKVQKREEFV	not soluble
MRIQVNAKGAARLLSRHLWVFRRDVVSGPETPGLYPVYWGRRFLALALYNPHTDLAVRAYRFAPAEDPVAALLENLAQALARREAVLRQDPEGGYRLVHAEGDLLPGLVVDYYAGHAVVQATAHAWEGLLPQVAEALRPHVQSVLAKNDARTRELEGLPLYVRPLLGEVPERVQVQEGRVRYLVDLRAGQKTGAYLDQRENRLYMERFRGERALDVFSYAGGFALHLALGFREVVAVDSSAEALRRAEENARLNGLGNVRVLEANAFDLLRRLEKEGERFDLVVLDPPAFAKGKKDVERAYRAYKEVNLRAIKLLKEGGILATASCSHHMTEPLFYAMVAEAAQDAHRLLRVVEKRGQPFDHPVLLNHPETHYLKFAVFQVL	soluble
MGSDKIHHHHHHMQNIVDNTLLLSYLNNEYIKKLFQQFNHPFKILRYEAKETVLHEGEMIDGLYIQMSGRTKITSSVITGKALLLRFCSAVSIMGDIELIQSVNIQSHVTSEQQTDFLFIDKNYVTSYLLQDVIFLQELIHHVTYKLQTCTTASRINLLASVETRFASYLCTARNPSNLFGREIHTKDHHEIASLIGTTTRHLNRVIEKLIANNIMHKNNKQIVVDDWKAIDTLSNGLRYE	not soluble
SKLVWSPETASKAYIDTVKSCENLETPDAAELIAAMAAGWNVKLIVETWSEGDAIASSIGLNVASKHANAKHICIVQNSRSESAYLQAIQESSSPLNFPETIVAEEPGKAMKKLQGVDFLVVDWRNKEFAAAALKNAAFGNRGAVVVCRNGYSSLRRVLRDRKVVRTVTLPVTGGIEIAHVAARNSGKSGNNKRRWITHVDQRSGEEHVFSI	soluble
MAHHHHHHMCVSVCACARPCSLLISLFEKRQHGWGCCNSFTFEHVCSADAVRCLFFFVCDSPSSSLPPSLFTRHSPLLFSSCPFACPSSVHPQRQDNTRRRAEQPCAQALWIRRGINRIGNLLVPNDNYCWFEDFFTPVLESVQEAQRASRWKTHTAPSEFIEAMGAAIAKNHPDTCTSSLVYWCYRNGISVFSPAFTDGSMGDMIYFYNFSHKGLVVDPLEDVVRLRKLAAKEKGRNLAIVLGGGLPKHHLLRNVSMDAVVMVTTGLEADGCVSSGVLADDVACGLLREETETVRVQGDATVVFPLMLIAEKAATLEGAAA	not soluble
MHHHHHHMKEIATEYSFIKYTELELDDNGSIKQLSIPNKYNVIYAIAINDELVYIGKTKNLRKRINYYRTAINRKDKTSDSTKSALIHSALKEGSKVEFYARQCFNLSMTNELGTMTIATIDLEAPLFIKLFNPPWNIQHKKK	soluble
MWYQKTLTLSAKSRGFHLVTDEILNQLADMPRVNIGLLHLLLQHTSASLTLNENCDPTVRHDMERFFLRTVPDNGNYEHDYEGADDMPSHIKSSMLGTSLVLPVHKGRIQTGTWQGIWLGEHRIHGGSRRIIATLQGELEHHHHHH	soluble
MAHRRKFGGGRGEAVAKAVGIKGSALPTVIDATAGLGRDAFVLAAIGCQVRLVERHPVVFLLLQDGLNRAYQDEEIGEMLQQNLHLLNVQHINELDPNSDYADVVYLDPMYPHKQKSALVKKEMRVFQHLVGADLDADELLLPALQLAKKRVVVKRPDYAEFLCGKQPHFSHETKNHRFDIYMGASQCLEHHHHHH	not soluble
MRPLLLLALLGWLLLAEAKGDAKPEDNLLVLTVATKETEGFRRFKRSAQFFNYKIQALGLGEDWNVEKGTSAGGGQKVRLLKKALEKHADKEDLVILFTDSYDVLFASGPRELLKKFRQSRSQVVFSAEELIYPDRRLETKYPVVSDGKRFLGSGGFIGYAPNLSKLVAEWEGQDSDSDQLFYTKIFLDPEKREQINITLDHRCRIFQNLDGALDEVVLKFEMGHVRARNLAYDTLPVLIHGNGPTKLQLNYLGNYIPRFWTFETGCTVCDEGLRSLKGIGDEALPTVLVGVFIEQPTPFVSLFFQRLLRLHYPQKHMRLFIHNHEQHHKAQVEEFLAQHGSEYQSVKLVGPEVRMANADARNMGADLCRQDRSCTYYFSVDADVALTEPNSLRLLIQQNKNVIAPLMTRHGRLWSNFWGALSADGYYARSEDYVDIVQGRRVGVWNVPYISNIYLIKGSALRGELQSSDLFHHSKLDPDMAFCANIRQQDVFMFLTNRHTLGHLLSLDSYRTTHLHNDLWEVFSNPEDWKEKYIHQNYTKALAGKLVETPCPDVYWFPIFTEVACDELVEEMEHFGQWSLGNNKDNRIQGGYENVPTIDIHMNQIGFEREWHKFLLEYIAPMTEKLYPGYYTRAQFDLAFVVRYKPDEQPSLMPHHDASTFTINIALNRVGVDYEGGGCRFLRYNCSIRAPRKGWTLMHPGRLTHYHEGLPTTRGTRYIAVSFVDP	not soluble
MSLKAIWHGGFIYTMLEEGDRTEAVYVEDGVIKGTGSYERLKEKYGSPETEEISLNGAVMFPGFVDSHLHLIGHGEKQLQLDLSALTSKDSILQAAKERERQLPKNDWLIGEGWNENQFETPDYLTKHDLDRLFPDRPVLLKRICRHAIAVNSAALQAAGISRNTPDPDGGVIVKDANGEPTGLLFDKAQDLILKAVPPVSQHYVDEALTAAIKDCWTKGLTGGHSEDLSYYGDVSVPMKAYEKAAAGGKYPFRCHLLVHHEAVDRWEQLEKLSGPYVEFGAMKIFADGALGGRTALLKEPYQDDPSTNGVQVHDDETLGRLIRKAREKGMEVAVHAIGDLAFEKVLNAIEKHPPKNGRHDRLIHAQVLDNELIERAARMPIALDLQPHFVASDFPWVIDRLGKDRMKTAFAWKTLISKGILCAGGSDAPIEPVDPLLGIQSAVLRKSSHEQNGPSYNESECLPVYEAIKLYTEGSAGIIYKEKSRGKIAEGYDADFTVLSGDPFAIDPAQLHLLEIKKTVINGQIVYEKSEGHHHHHH	soluble
MLAAAHKAGGTFAAESILILRNRLSGVADILADFPDDVPVYVAEAPVLDGIVGFHLHRGILALGRRVRDDGLEQMTAALPASSLVLVGCGISNHDNLGAMFRNAAAFYADAVLLDETCCDPLYRKALRVSVGSVLSVPYHRGGGAVEMLERLSEEGFAIWGLSPDGKTEIRDIPRSERMALVIGTEGEGLPQSVLSRFQTARIAQSPQVDSLNAGTASGLALYQMAGVMGRV	not soluble
ETGDIVETATGAGSFTTLLTAAEAAGLVDTLKGDGPFTVFAPTDAAFAALPEGTVEDLLKPENKEKLTEILTYHVVPGEVMSSDLTEGMTAETVEGGALTVTLEGGPKVNGVSISQPDVDASNGVIHVIDGVLMPGA	soluble
MHVLDLFKIEGKTAIVTGGGRGLGEQIAVGLAEAGANVVVCSRKVEACEQVKEKLEQLGVRSLALRCDVTNPEEVKHVVETTVKEFGGIDILVNNSGATWGAPVEEMPLEAWQKVINVNVTGTFLMSQAVGKVMIAKQTGGSIINIASVAGLGGTHPDILNTIGYNTSKGAVITFTRDLAAKWGKHGIRVNAVAPGFFPTKMSKVVLERVGKKVLEHTPLGRFGGEDDLKGAVLFLASPASAFVTGALLVVDGGSHATGI	soluble
MGSDKIHHHHHHMSLFHLIAPSGYCIKQHAALRGIQRLTDAGHQVNNVEVIARRCERFAGTETERLEDLNSLARLTTPNTIVLAVRGGYGASRLLADIDWQALVARQQHDPLLICGHSDFTAIQCGLLAHGNVITFSGPMLVANFGADELNAFTEHHFWLALRNETFTIEWQGEGPTCRAEGTLWGGNLAMLISLIGTPWMPKIENGILVLEDINEHPFRVERMLLQLYHAGILPRQKAIILGSFSGSTPNDYDAGYNLESVYAFLRSRLSIPLITGLDFGHEQRTVTLPLGAHAILNNTREGTQLTISGHPVLKM	not soluble
MALHTVLIILSLLPMLEAQNPEHANFTIGEPITNETLSWLSDKWFFMGAAFRKLEYRQAIQTMQSEFFYLTTNLINDTIELRESQTIGDQCVYNSTHLGFQRENGTFSKYEGGVETFAHLIVLRKHGAFMLAFDLKDEKKRGLSLYAKRPDITPELQEVFQKAVTHVGMDESEIIFVDWKKDRCGQQEKKQLELGKETKKDPEEGQA	soluble
MTERLKVMTIFGTRPEAIKMAPLVLELQKHPEKIESIVTVTAQHRQMLDQVLSIFGITPDFDLNIMKDRQTLIDITTRGLEGLDKVMKEAKPDIVLVHGDTTTTFIASLAAFYNQIPVGHVEAGLRTWDKYSPYPEEMNRQLTGVMADLHFSPTAKSATNLQKENKDESRIFITGNTAIDALKTTVKETYSHPVLEKLGNNRLVLMTAHRRENLGEPMRNMFRAIKRLVDKHEDVQVVYPVHMNPVVRETANDILGDYGRIHLIEPLDVIDFHNVAARSYLMLTDSGGVQEEAPSLGVPVLVLRDTTERPEGIEAGTLKLAGTDEETIFSLADELLSDKEAHDKMSKASNPYGDGRASERIVEAILKHFNK	not soluble
MGSDKIHHHHHHMRNPDIGIDDLTALFIADTPLIDVRAPVEFTQGSLPGAVNLPILNDEERALVGTTYKQQGSEAAIKLGYEMVSGSVKQNRLQQWLDFIHQHPRAILYCFRGGKRSQITQQWLRDTGIDSPLITGGYKRARQFLISTIDRFSEHRKLLVITGPTGSGKTRLIHDISNSHPVLDIEALARHRGSAFGGMSVPQPSQIDFENHLAVNLLKLEQNNLSEPVIVEDESRHTGKVYLPDSFFHHLRNSEIIWVDEPLATRVDNIFEDYILTTPIGQAQRIRQAIPPLASTVETREILRQQARQLFDKYAGALQAISKKLGGDRFQEVSEDLENARSDFENKNEIQSNKIWIEKLVRYYYDPLYLGSLQRRRVNPCFKGSGQAVMDYLQARK	not soluble
MSIQNISFLGAGSIAEAIIGGLLHANVVKGEQITVSNRSNETRLQELHKKYGVKGTHNKKELLTDANILFLAMKPKDVAEALTPFKEYINNNVLIISLLAGVSTDSIRKLLQKDVPIIRAMPNTSAAILKSATAISPSKHATAEHIRTATSLFETIGLVSVVEEEDMHAVTALSGSGPAYIYYVVEAMEEAAKKIGLKEDVAKSLILQTMIGAAEMLKASDKHPSILRKEITSPGGTTEAGIEVLQEHKFQQALISCITQATKRSHNLGKTLEQLTKEKLEHHHHHH	soluble
MAHHHHHHMTTMARVDETLARFKGKSPRDSYKQVCGELDVHMQREIYAALPEKPMAWHHIYTLDLEKALLGTKGCMAMLPLITVSTSMRKLSLRSCGLSDEFVIQLCAVLQSHPSLRSVDISDNELVTVYSAPHIISVMRNNSNMVLFDVYNTHVGSNVGDIIAKLGQRNLDNVLHYYEDRYFRMKNLFNYMDADGTGWVVLKSLVLNCPYPVLQEQFVERIATKQPRKRSDNTISINTFLQLVYMNYKTEAEIGTYSNKTIDEPYVFMVANWKQLLYAVERYNARAAAMGDGQGPHPPVQLPDNFHRWRLRDYIITPDDADALVEGAVQLIEHSSAMAEGEPELNESGERAEPDAEVDSDKETAENAAEAAPLVIPITILLRAAKSVLVLPPSVAKPSYSFYTDRDAAYVPEILRNGSRLFSVSRLSCLFSGGASTTGDSASSPDVLQDSADRPHTFSLPASVVKMVVDFFNKEHKKLPTKKQSMIPDSPQTRRDKAMEKAAIPVPTFLSAEFVSDLERVCPRFLADYYSRHALLIEDGTITLQEMVNVLDEMYAQCRIDRIISLADIKAMPDPMKDKSLVSFVTAHFADRDEDISFLEPFNDVVAY	soluble
MTTTTTFKGVDPNSRNSSRVLRPPGGGSNFSLGFDEPTEQPVRKNKMASNIFGTPEENQASWAKSAGAKSSGGREDLESSGLQRRNSSEASSGDFLDLKGEGDIHENVDTDLPGSLGQSEEKPVPAAPVPSPVAPAPVPSRRNPPGGKSSLVLG	soluble

Source: the DeepSol protein solubility set
